The series deals with the molecule itself. Description: co-sedimentation; in vitro assembly of FimA monomers to pilus rods: 50 μM FimA monomer in 20 mM acetic acid-NaOH pH 5.0, 150 mM NaCl, 7 days; rods pelleted at 186'000 x g, 10 min, 4°C.

B1: Mature FimA without its natural signal sequence (159 residues), refolded FimA monomer (natural protein)
chain: AATTVNGGTVHFKGEVVNAACAVDAGSVDQTVQLGQVRTASLAQEGATSSAVGFNIQLNDCDTNVASKAAVAFLGTAIDAGHTNVLALQSSAAGSATNVGVQILDRTGAALTLDGATFSSETTLNNGTNTIPFQARYFATGAATPGAANADATFKVQYQ
notes: the N-terminal methionine added for cytoplasmic expression was cleaved off quantitatively (measured 15826.0 Da). numbers count on: the mature protein; also called pili assembled in vitro
With B1, the binding result is given as “binds”.

Values taken from article PMC5719983, “The Cryoelectron Microscopy Structure of the Type 1 Chaperone-Usher Pilus Rod” (Structure(London, England:1993), 2017).
